The record followed here is patent publication US20260049138A1 (Chugai, published 2026).

This test concerns the target T1, CD3ε homodimer protein (human, UniProt P07766 23-126, limits assumed, sulfo-tag or biotin label in the ECL assays; amine-coupled to the chip in SPR).
T1 construct: also called human CD3ε homodimer protein; CD3 (CD3ε)
Briefly: SPR Biacore T200; CD3ε homodimer on CM4 chip. (In general: Surface plasmon resonance follows binding to a sensor surface in real time, without labels.)
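Note: Single-residue variant antibodies injected as analyte over CD3ε homodimer immobilized by amine coupling, run at 25 °C in HBS-EP+ buffer.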

T1 sequence (P07766 23-126 limits assumed): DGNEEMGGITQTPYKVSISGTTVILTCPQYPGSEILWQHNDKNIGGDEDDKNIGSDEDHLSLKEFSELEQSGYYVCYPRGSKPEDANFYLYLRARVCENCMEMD

B1: CE115HA000 N31Q one-arm antibody (antibody, human IgG1, kappa, L234A L235A, N297A, name in Kabat numbering)
heavy: QVQLVESGGGVVQPGRSLRLSCAASGFTFSQAWMHWVRQAPGKGLEWVAQIKAKSNNYATYYAESVKGRFTISRDDSKNSLYLQMNSLKTEDTAVYYCRYVHYGAYYGVDAWGQGTTVTVSSASTKGPSVFPLAPSSKSTSGGTAALGCLVKDYFPEPVTVSWNSGALTSGVHTFPAVLQSSGLYSLSSVVTVPSSSLGTQTYICNVNHKPSNTKVDKKVEPKSCDKTHTCPPCPAPEAAGGPSVFLFPPKPKDTLMISRTPEVTCVVVDVSHEDPEVKFNWYVDGVEVHNAKTKPREEQYASTYRVVSVLTVLHQDWLNGKEYKCKVSNKALPAPIEKTISKAKGQPREPQVYTLPPSRCELTKNQVSLSCAVKGFYPSDIAVEWESNGQPENNYKTTPPVLDSDGSFFLVSKLTVDKSRWQQGNVFSCSVMHEALHNHYTQKSLSLSPDYKDDDDK
chain: EPKSSDKTHTCPPCPAPELLGGPSVFLFPPKPKDTLMISRTPEVTCVVVDVSHEDPEVKFNWYVDGVEVHNAKTKPREEQYNSTYRVVSVLTVLHQDWLNGKEYKCKVSNKALPAPIEKTISKAKGQPREPQVCTLPPSRDELTKNQVSLWCLVKGFYPSDIAVEWESNGQPENNYKTTPPVLDSDGSFFLYSKLTVDKSRWQQGNVFSCSVMHEALHNRYTQKSLSLSP
light: DIVMTQSPLSLPVTPGEPASISCRSSQSLVHSNRNTYLHWYQQKPGQAPRLLIYKVSNRFSGVPDRFSGSGSGTDFTLKISRVEAEDVGVYYCGQGTQVPYTFGQGTKLEIKRTVAAPSVFIFPPSDEQLKSGTASVVCLLNNFYPREAKVQWKVDNALQSGNSQESVTEQDSKDSTYSLSSTLTLSKADYEKHKVYACEVTHQGLSSPVTKSFNRGEC
With B1, the “ratio of amounts bound Z=Y/X (altered form / CE115HA000)” value was 0.49.

B2: CE115HA000 N31W one-arm antibody (antibody, human IgG1, kappa, L234A L235A, N297A, name in Kabat numbering)
heavy: QVQLVESGGGVVQPGRSLRLSCAASGFTFSWAWMHWVRQAPGKGLEWVAQIKAKSNNYATYYAESVKGRFTISRDDSKNSLYLQMNSLKTEDTAVYYCRYVHYGAYYGVDAWGQGTTVTVSSASTKGPSVFPLAPSSKSTSGGTAALGCLVKDYFPEPVTVSWNSGALTSGVHTFPAVLQSSGLYSLSSVVTVPSSSLGTQTYICNVNHKPSNTKVDKKVEPKSCDKTHTCPPCPAPEAAGGPSVFLFPPKPKDTLMISRTPEVTCVVVDVSHEDPEVKFNWYVDGVEVHNAKTKPREEQYASTYRVVSVLTVLHQDWLNGKEYKCKVSNKALPAPIEKTISKAKGQPREPQVYTLPPSRCELTKNQVSLSCAVKGFYPSDIAVEWESNGQPENNYKTTPPVLDSDGSFFLVSKLTVDKSRWQQGNVFSCSVMHEALHNHYTQKSLSLSPDYKDDDDK
chain: EPKSSDKTHTCPPCPAPELLGGPSVFLFPPKPKDTLMISRTPEVTCVVVDVSHEDPEVKFNWYVDGVEVHNAKTKPREEQYNSTYRVVSVLTVLHQDWLNGKEYKCKVSNKALPAPIEKTISKAKGQPREPQVCTLPPSRDELTKNQVSLWCLVKGFYPSDIAVEWESNGQPENNYKTTPPVLDSDGSFFLYSKLTVDKSRWQQGNVFSCSVMHEALHNRYTQKSLSLSP
light: DIVMTQSPLSLPVTPGEPASISCRSSQSLVHSNRNTYLHWYQQKPGQAPRLLIYKVSNRFSGVPDRFSGSGSGTDFTLKISRVEAEDVGVYYCGQGTQVPYTFGQGTKLEIKRTVAAPSVFIFPPSDEQLKSGTASVVCLLNNFYPREAKVQWKVDNALQSGNSQESVTEQDSKDSTYSLSSTLTLSKADYEKHKVYACEVTHQGLSSPVTKSFNRGEC
Consider B2, for which the “ratio of amounts bound Z=Y/X (altered form / CE115HA000)” value was 0.63.

B3: CE115HA000 N31R one-arm antibody (antibody, human IgG1, kappa, L234A L235A, N297A, name in Kabat numbering)
heavy: QVQLVESGGGVVQPGRSLRLSCAASGFTFSRAWMHWVRQAPGKGLEWVAQIKAKSNNYATYYAESVKGRFTISRDDSKNSLYLQMNSLKTEDTAVYYCRYVHYGAYYGVDAWGQGTTVTVSSASTKGPSVFPLAPSSKSTSGGTAALGCLVKDYFPEPVTVSWNSGALTSGVHTFPAVLQSSGLYSLSSVVTVPSSSLGTQTYICNVNHKPSNTKVDKKVEPKSCDKTHTCPPCPAPEAAGGPSVFLFPPKPKDTLMISRTPEVTCVVVDVSHEDPEVKFNWYVDGVEVHNAKTKPREEQYASTYRVVSVLTVLHQDWLNGKEYKCKVSNKALPAPIEKTISKAKGQPREPQVYTLPPSRCELTKNQVSLSCAVKGFYPSDIAVEWESNGQPENNYKTTPPVLDSDGSFFLVSKLTVDKSRWQQGNVFSCSVMHEALHNHYTQKSLSLSPDYKDDDDK
chain: EPKSSDKTHTCPPCPAPELLGGPSVFLFPPKPKDTLMISRTPEVTCVVVDVSHEDPEVKFNWYVDGVEVHNAKTKPREEQYNSTYRVVSVLTVLHQDWLNGKEYKCKVSNKALPAPIEKTISKAKGQPREPQVCTLPPSRDELTKNQVSLWCLVKGFYPSDIAVEWESNGQPENNYKTTPPVLDSDGSFFLYSKLTVDKSRWQQGNVFSCSVMHEALHNRYTQKSLSLSP
light: DIVMTQSPLSLPVTPGEPASISCRSSQSLVHSNRNTYLHWYQQKPGQAPRLLIYKVSNRFSGVPDRFSGSGSGTDFTLKISRVEAEDVGVYYCGQGTQVPYTFGQGTKLEIKRTVAAPSVFIFPPSDEQLKSGTASVVCLLNNFYPREAKVQWKVDNALQSGNSQESVTEQDSKDSTYSLSSTLTLSKADYEKHKVYACEVTHQGLSSPVTKSFNRGEC
Consider B3, for which the “ratio of amounts bound Z=Y/X (altered form / CE115HA000)” value was 1.14.

B4: CE115HA000 N31Y one-arm antibody (antibody, human IgG1, kappa, L234A L235A, N297A, name in Kabat numbering)
heavy: QVQLVESGGGVVQPGRSLRLSCAASGFTFSYAWMHWVRQAPGKGLEWVAQIKAKSNNYATYYAESVKGRFTISRDDSKNSLYLQMNSLKTEDTAVYYCRYVHYGAYYGVDAWGQGTTVTVSSASTKGPSVFPLAPSSKSTSGGTAALGCLVKDYFPEPVTVSWNSGALTSGVHTFPAVLQSSGLYSLSSVVTVPSSSLGTQTYICNVNHKPSNTKVDKKVEPKSCDKTHTCPPCPAPEAAGGPSVFLFPPKPKDTLMISRTPEVTCVVVDVSHEDPEVKFNWYVDGVEVHNAKTKPREEQYASTYRVVSVLTVLHQDWLNGKEYKCKVSNKALPAPIEKTISKAKGQPREPQVYTLPPSRCELTKNQVSLSCAVKGFYPSDIAVEWESNGQPENNYKTTPPVLDSDGSFFLVSKLTVDKSRWQQGNVFSCSVMHEALHNHYTQKSLSLSPDYKDDDDK
chain: EPKSSDKTHTCPPCPAPELLGGPSVFLFPPKPKDTLMISRTPEVTCVVVDVSHEDPEVKFNWYVDGVEVHNAKTKPREEQYNSTYRVVSVLTVLHQDWLNGKEYKCKVSNKALPAPIEKTISKAKGQPREPQVCTLPPSRDELTKNQVSLWCLVKGFYPSDIAVEWESNGQPENNYKTTPPVLDSDGSFFLYSKLTVDKSRWQQGNVFSCSVMHEALHNRYTQKSLSLSP
light: DIVMTQSPLSLPVTPGEPASISCRSSQSLVHSNRNTYLHWYQQKPGQAPRLLIYKVSNRFSGVPDRFSGSGSGTDFTLKISRVEAEDVGVYYCGQGTQVPYTFGQGTKLEIKRTVAAPSVFIFPPSDEQLKSGTASVVCLLNNFYPREAKVQWKVDNALQSGNSQESVTEQDSKDSTYSLSSTLTLSKADYEKHKVYACEVTHQGLSSPVTKSFNRGEC
As for B4, the “ratio of amounts bound Z=Y/X (altered form / CE115HA000)” value came out at 0.64.

B5: CE115HA000 N31S one-arm antibody (antibody, human IgG1, kappa, L234A L235A, N297A, name in Kabat numbering)
heavy: QVQLVESGGGVVQPGRSLRLSCAASGFTFSSAWMHWVRQAPGKGLEWVAQIKAKSNNYATYYAESVKGRFTISRDDSKNSLYLQMNSLKTEDTAVYYCRYVHYGAYYGVDAWGQGTTVTVSSASTKGPSVFPLAPSSKSTSGGTAALGCLVKDYFPEPVTVSWNSGALTSGVHTFPAVLQSSGLYSLSSVVTVPSSSLGTQTYICNVNHKPSNTKVDKKVEPKSCDKTHTCPPCPAPEAAGGPSVFLFPPKPKDTLMISRTPEVTCVVVDVSHEDPEVKFNWYVDGVEVHNAKTKPREEQYASTYRVVSVLTVLHQDWLNGKEYKCKVSNKALPAPIEKTISKAKGQPREPQVYTLPPSRCELTKNQVSLSCAVKGFYPSDIAVEWESNGQPENNYKTTPPVLDSDGSFFLVSKLTVDKSRWQQGNVFSCSVMHEALHNHYTQKSLSLSPDYKDDDDK
chain: EPKSSDKTHTCPPCPAPELLGGPSVFLFPPKPKDTLMISRTPEVTCVVVDVSHEDPEVKFNWYVDGVEVHNAKTKPREEQYNSTYRVVSVLTVLHQDWLNGKEYKCKVSNKALPAPIEKTISKAKGQPREPQVCTLPPSRDELTKNQVSLWCLVKGFYPSDIAVEWESNGQPENNYKTTPPVLDSDGSFFLYSKLTVDKSRWQQGNVFSCSVMHEALHNRYTQKSLSLSP
light: DIVMTQSPLSLPVTPGEPASISCRSSQSLVHSNRNTYLHWYQQKPGQAPRLLIYKVSNRFSGVPDRFSGSGSGTDFTLKISRVEAEDVGVYYCGQGTQVPYTFGQGTKLEIKRTVAAPSVFIFPPSDEQLKSGTASVVCLLNNFYPREAKVQWKVDNALQSGNSQESVTEQDSKDSTYSLSSTLTLSKADYEKHKVYACEVTHQGLSSPVTKSFNRGEC
On to B5, for which the “ratio of amounts bound Z=Y/X (altered form / CE115HA000)” value amounted to 0.81.

B6: CE115HA000 N53A one-arm antibody (antibody, human IgG1, kappa, L234A L235A, N297A, name in Kabat numbering)
heavy: QVQLVESGGGVVQPGRSLRLSCAASGFTFSNAWMHWVRQAPGKGLEWVAQIKAKSANYATYYAESVKGRFTISRDDSKNSLYLQMNSLKTEDTAVYYCRYVHYGAYYGVDAWGQGTTVTVSSASTKGPSVFPLAPSSKSTSGGTAALGCLVKDYFPEPVTVSWNSGALTSGVHTFPAVLQSSGLYSLSSVVTVPSSSLGTQTYICNVNHKPSNTKVDKKVEPKSCDKTHTCPPCPAPEAAGGPSVFLFPPKPKDTLMISRTPEVTCVVVDVSHEDPEVKFNWYVDGVEVHNAKTKPREEQYASTYRVVSVLTVLHQDWLNGKEYKCKVSNKALPAPIEKTISKAKGQPREPQVYTLPPSRCELTKNQVSLSCAVKGFYPSDIAVEWESNGQPENNYKTTPPVLDSDGSFFLVSKLTVDKSRWQQGNVFSCSVMHEALHNHYTQKSLSLSPDYKDDDDK
chain: EPKSSDKTHTCPPCPAPELLGGPSVFLFPPKPKDTLMISRTPEVTCVVVDVSHEDPEVKFNWYVDGVEVHNAKTKPREEQYNSTYRVVSVLTVLHQDWLNGKEYKCKVSNKALPAPIEKTISKAKGQPREPQVCTLPPSRDELTKNQVSLWCLVKGFYPSDIAVEWESNGQPENNYKTTPPVLDSDGSFFLYSKLTVDKSRWQQGNVFSCSVMHEALHNRYTQKSLSLSP
light: DIVMTQSPLSLPVTPGEPASISCRSSQSLVHSNRNTYLHWYQQKPGQAPRLLIYKVSNRFSGVPDRFSGSGSGTDFTLKISRVEAEDVGVYYCGQGTQVPYTFGQGTKLEIKRTVAAPSVFIFPPSDEQLKSGTASVVCLLNNFYPREAKVQWKVDNALQSGNSQESVTEQDSKDSTYSLSSTLTLSKADYEKHKVYACEVTHQGLSSPVTKSFNRGEC
Regarding B6, the “ratio of amounts bound Z=Y/X (altered form / CE115HA000)” value is 0.7.
